Measurements: US20120309934A1 (GWANGJU INSTITUTE OF SCIENCE AND TECHNOLOGY, published 2012)

How the values were obtained:
[1] = molecular target: T1, GST-AR DBD protein (androgen receptor DNA binding domain with N-terminal GST) (UniProt P10275 556-636); test: phage ELISA of single clones on AR-DBD against BSA
T1 construct: In ELISA and EMSA the text calls the protein AR-DBD or AR DBD protein; also called androgen receptor DBD; not shown: GST encoded by the pGEX-4T-1 vector, N-terminal
T1 sequence (looked up): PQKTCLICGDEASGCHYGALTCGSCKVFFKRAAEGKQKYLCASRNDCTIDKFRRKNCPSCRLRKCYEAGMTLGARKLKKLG
Description: AR-DBD (10 μg/ml) and BSA (10 μg/ml) each was added to 30 wells (50 μl per well) in a 96-well ELISA plate and then kept to stand at 4° C. overnight. Next day, all wells were washed with 0.1% PBST three times, and blocked at room temperature for 2 hrs using 2% skim milk diluted with PBS. Then, the solution was removed and the plate was washed with 0.1% PBST three times. Phage peptide solution (100 μl) amplified from each clone was aliquoted to […] protein-bound wells and BSA protein-bound wells and kept to stand at 27° C. for 1.5 hrs. After washing with 0.1% PBST 10 times, HRP-conjugated anti-M13 antibodies (1:1,000 dilution; GE Healthcare) were added to each well and incubated at 27° C. for 1 hr. After washing with 0.1% PBST 5 times, 100 μl TMB was divided into each well to induce colorimetric reaction, followed by stopping the reaction adding 100 μl of 1 M HCl. The absorbance was measured at 450 nm to select phages which had the absorbance above 20-fold higher than BSA. XL1 cells were infected with these phages and spread in plate to produce 100-200 of plaques. […]
The phages recovered from the 5th biopanning step having the highest O/I ratio in each library were isolated as plaques. […] Most plaques were analyzed to show the absorbance value of AR-DBD higher than that of BSA. The DNA sequencing was performed for 20 clones showing the absorbance value above 5-fold higher than BSA. […]

[2] = molecular target: T2, Fibronectin ED-B protein (human fibronectin extra domain B, N-terminal His-tag) (human, UniProt P02751 1266-1356, biotinylated with sulfo-NHS-SS-biotin for biopanning, input-phage ELISA and SPR on the streptavidin chip); test: SPR (BIAcore X), 2,000 RU biotinylated ED-B on streptavidin chip, PBS pH 7.4, 30 µl/min
T2 construct: domain: ED-B; Expressed in E. coli BL21 from pET28b; also called biotinylated-EDB; not shown: N-terminal His-tag from the pET28b vector
Description: (§1) In addition to tryptophan zipper, GB1 m3 and HP7 peptide as a type of other (3-hairpin backbones were synthesized to contain N-terminal sequence (HCSSAV) and C-terminal sequence (IIRLEQ) of peptide 2 which is specifically bound to ED-B (Anigen, Korea). In other words, the sequence of bipodal-peptide binder in tryptophan zipper is […], and in GB1 m3 and HP7 are […] and […], respectively. Affinity of each peptide was measured using BIAcore X (Biacore AB, Uppsala, Sweden). ED-B was immobilized on streptavidin (SA) chip (Biacore) by injecting 2,000 RU biotinylated-EDB. PBS (pH 7.4) was used as a running buffer. […] It could be appreciated that all stable β-hairpin motifs may function as a structure stabilizing region.

[3] = molecular target: T2, Fibronectin ED-B protein (human …); test: SPR (BIAcore X), biotinylated ED-B on SA chip
Description: as §1

Human serum albumin = molecular target: T3, Human serum albumin (human, UniProt P02768 25-609); test: phage ELISA: clones with higher absorbance than on BSA, sequenced
T3 construct: Bought protein; also called HSA; HAS
Description: (§2) The transformed cells were infected with Ex helper phages (5×10⁹ pfu/ml; OD=0.8-1.0) and cultured at 37° C. for 1 hr with shaking at 200 rpm. After removing the supernatant by centrifuging at 1,000×g for 10 min, the precipitated cells were resuspended in 1 ml LB liquid media supplemented with 50 μg/ml ampicillin and 25 μg/ml kanamycin, and cultured at 30° C. overnight with shaking at 200 rpm. The supernatant was collected by centrifuging at 10,000×g for 20 min at 4° C. and mixed with 2% skim milk, which is used in detection of phage peptides.
(§3) Fibronectin ED-B, VEGF, VCAM1, Nicotinic acetylcholine receptor (nAchR), Human serum albumin and MyD88 (each 5 μg/ml) and BSA (10 μg/ml) were added to 30 wells (50 μl per well) in a 96-well ELISA plate and then kept to stand at 4° C. overnight. Next day, all wells were washed with 0.1% PBST three times, and blocked at room temperature for 2 hrs using 2% skim milk diluted with PBS. Then, the solution was removed and the plate was washed with 0.1% PBST three times. Phage peptide solution (100 μl) amplified from each clone was divided into all wells and kept to stand at 27° C. for 1.5 hrs. After washing with 0.1% PBST 5 times, HRP-conjugated anti-M13 antibodies (1:1,000 dilution; GE Healthcare) were added to each well and incubated at 27° C. for 1 hr. After washing with 0.1% PBST 5 times, 100 μl TMB was divided into each well to induce colorimetric reaction, followed by stopping the reaction adding 100 μl of 1 M HCl. The absorbance was measured at 450 nm to select phages which had the absorbance higher than BSA. XL1 cells were infected with these phages and spread in plate to produce 100-200 of plaques. Using a sterile tip, plaques were inoculated in 4 ml LB-ampicillin (50 μg/ml) media and cultured at 37° C. overnight with vigorous shaking. Plasmids were purified by plasmid preparation kit (GeneAll, Seoul, Korea), and then sequenced. The following phagemid sequence was used for sequencing: 5′-[…]-3′.
(§4) The phages recovered from biopanning step having the highest ratio of output phage to input phage were isolated as plaques. Sixty plaques were amplified from each plaque, and then ELISA for BSA was carried out (FIG. 4). After selecting clones with higher absorbance compared to BSA, they were sequenced. We isolated peptides specific to each protein which were repetitively found in DNA sequencing (Table 3).

[4] = molecular target: T2, Fibronectin ED-B protein (human …); test: SPR (BIAcore X), biotinylated ED-B on SA chip; remark: listed apart in the source
Description: (§5) Bipodal-peptide binder peptides specific to ED-B, VEGF or nAchR which were repetitively found in DNA sequencing were synthesized from Anigen Inc. (Korea). Affinity was measured using BIAcore X instrument (Biacore AB, Uppsala, Sweden). ED-B and nAchR were immobilized on streptavidin (SA) chip (Biacore) by injecting 2,000 RU biotinylated-EDB. VEGF was immobilized on CM5 chip (Biacore) using EDC/NHS. PBS (pH 7.4) was used as a running buffer.
(§6) The above-mentioned peptides were synthesized and their affinities to fibronectin ED-B, VEGF, VCAM1, nAchR and HAS were measured using SPR Biacore system (Biacore AB, Uppsala, Sweden).

[5] = molecular target: T2, Fibronectin ED-B protein (human …); test: SPR (BIAcore X), biotinylated ED-B on streptavidin chip, synthetic peptide as analyte
Description: as §5, §6

[6] = molecular target: T4, VEGF121 (human vascular endothelial growth factor) (human, UniProt P15692-9 27-147); test: phage ELISA: clones with higher absorbance than on BSA, sequenced
T4 construct: Immobilised on a CM5 chip by EDC/NHS for SPR and coated on plates for phage ELISA; also called VEGF-Trx cut with thrombin
T4 sequence (looked up): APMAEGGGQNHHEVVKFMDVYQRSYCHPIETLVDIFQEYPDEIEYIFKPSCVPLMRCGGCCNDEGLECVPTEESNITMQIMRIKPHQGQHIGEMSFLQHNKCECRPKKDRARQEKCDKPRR
Description: as §2, §3, §4

[7] = molecular target: T2, Fibronectin ED-B protein (human …); test: SPR, synthetic truncated peptide on ED-B
Description: as §5
(§7) To verify cooperative effect of bipodal-peptide binder to antigen, we synthesized two peptides removing either N- or C-terminal region of peptide 2 to ED-B having excellent specificity in Table 3a for affinity measurement.

[8] = molecular target: T2, Fibronectin ED-B protein (human …); test: SPR (Biacore), ED-B
Description: as §5, §7

[9] = molecular target: T5, Peptide fragment of nAchR (Nicotinic acetylcholine receptor), 32 mer, biotinylated (N-terminal biotin); test: phage ELISA: clones with higher absorbance than on BSA, sequenced
T5 construct: Synthesised by Anigen; Immobilised on a streptavidin chip for SPR; also called biotinylated nAchR; biotinylated-nAchR peptide
T5 peptide: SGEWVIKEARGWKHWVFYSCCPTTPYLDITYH
Description: as §2, §3, §4

[10] = molecular target: T4, VEGF121 (human vascular endothelial …); test: SPR (BIAcore X), VEGF on CM5 chip
Description: as §5, §6

[11] = molecular target: T4, VEGF121 (human vascular endothelial …); test: SPR (BIAcore X), VEGF on CM5 chip, synthetic peptide as analyte
Description: as §5, §6

BSA = molecular target: T6, BSA (UniProt P02769 25-607); test: phage ELISA, absorbance at 450 nm
T6 construct: Control protein in the input-phage ELISA; also called bovine serum albumin
T6 sequence (P02769 25-607 limits assumed): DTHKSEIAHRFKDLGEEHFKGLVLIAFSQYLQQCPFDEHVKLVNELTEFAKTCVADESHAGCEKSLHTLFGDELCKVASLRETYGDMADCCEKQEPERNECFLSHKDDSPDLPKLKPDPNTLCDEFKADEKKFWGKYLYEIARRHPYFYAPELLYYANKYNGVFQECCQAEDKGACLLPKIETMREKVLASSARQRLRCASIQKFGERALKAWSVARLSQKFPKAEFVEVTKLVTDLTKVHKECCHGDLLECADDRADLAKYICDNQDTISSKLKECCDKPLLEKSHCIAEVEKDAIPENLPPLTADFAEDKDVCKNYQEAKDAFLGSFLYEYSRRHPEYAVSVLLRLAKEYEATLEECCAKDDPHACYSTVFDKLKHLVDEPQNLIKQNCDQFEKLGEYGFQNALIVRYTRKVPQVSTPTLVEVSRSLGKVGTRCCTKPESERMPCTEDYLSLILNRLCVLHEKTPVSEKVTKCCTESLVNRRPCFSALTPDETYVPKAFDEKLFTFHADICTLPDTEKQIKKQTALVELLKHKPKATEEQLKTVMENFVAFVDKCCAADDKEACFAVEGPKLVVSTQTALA

T3 sequence (P02768 25-609 limits assumed): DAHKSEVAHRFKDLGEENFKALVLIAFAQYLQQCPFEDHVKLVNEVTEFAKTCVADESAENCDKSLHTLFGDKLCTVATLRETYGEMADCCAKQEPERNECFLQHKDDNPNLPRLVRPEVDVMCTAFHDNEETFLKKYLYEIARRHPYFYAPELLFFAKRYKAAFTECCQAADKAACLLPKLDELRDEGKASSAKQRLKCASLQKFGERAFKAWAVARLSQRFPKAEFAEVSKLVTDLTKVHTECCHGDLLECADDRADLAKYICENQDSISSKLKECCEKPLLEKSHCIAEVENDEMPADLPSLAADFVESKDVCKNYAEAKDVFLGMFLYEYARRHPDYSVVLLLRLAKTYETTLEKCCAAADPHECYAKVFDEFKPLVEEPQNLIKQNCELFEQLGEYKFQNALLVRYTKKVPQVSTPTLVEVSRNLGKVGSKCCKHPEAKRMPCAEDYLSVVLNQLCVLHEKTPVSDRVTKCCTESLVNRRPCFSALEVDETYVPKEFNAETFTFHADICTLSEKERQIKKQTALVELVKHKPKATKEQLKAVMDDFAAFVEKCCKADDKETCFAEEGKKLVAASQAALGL
T2 sequence (P02751 1266-1356): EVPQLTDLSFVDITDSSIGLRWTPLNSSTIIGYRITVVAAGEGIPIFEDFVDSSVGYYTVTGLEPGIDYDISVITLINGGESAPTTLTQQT

Q: For GGHNIQGSWTWENGKWTWKGWQHIWG [Peptide 2 from the AR-DBD biopanning (6/20 clones), bipodal-peptide binder], which “fold absorbance over BSA” value [1] is on record?
A: Its value is > 5 fold.

Q: Which results are given for HCSSAVGKKWTYNPATGKFTVQEGIIRLEQ (Synthetic peptide (Anigen)) [Bipodal-peptide binder with GB1 m3 β-hairpin backbone carrying the ED-B peptide 2 binding regions]?
A: Kd [2]: 70 nM; koff [3]: 0.0119 s⁻¹; kon [3]: 169000 M⁻¹ s⁻¹

Q: Does YAHFGWGSWTWENGKWTWKGTTDSQS [Peptide 5 specific to HSA (Table 3e), bipodal-peptide binder] bind (Human serum albumin)?
A: Result: binds

Q: MSADKSGSWTWENGKWTWKGQVRTRD [Peptide 1 specific to fibronectin ED-B (Table 3a), bipodal-peptide binder] was tested. Which koff [4] did it give?
A: The koff was 0.024 s⁻¹.

Q: What about the kon [4] of the same binder?
A: Its kon is 38000 M⁻¹ s⁻¹.

Q: And the Kd [5]?
A: The Kd was 620 nM.

Q: Does YGAYPWGSWTWENGKWTWKGWRVSRD bind [6]?
A: Result: binds

Q: Does YGAYPWGSWTWENGKWTWKGWRVSRD bind (Human serum albumin)?
A: Result: binds

Q: With GSWTWENGKWTWKGIIRLEQ [C-terminal region peptide derived from ED-B peptide 2 (monopodal, one target binding region removed)] as the binder, how does the Kd [7] read?
A: Its Kd is 12800 nM.

Q: And the koff [8]?
A: The koff was 0.022 s⁻¹.

Q: What about the kon [8] of the same binder?
A: The kon was 1770 M⁻¹ s⁻¹.

Q: Does YAYPLLGSWTWENGKWTWKGWYQKWI [Peptide 2 specific to nAchR (Table 3d), bipodal-peptide binder] bind [9]?
A: Result: binds

Q: ASPFWAGSWTWENGKWTWKGWVPSNA [Peptide 2 specific to VEGF (Table 3b), bipodal-peptide binder] was tested. Which koff [10] did it give?
A: Its koff is 0.011 s⁻¹.

Q: What about the kon [10] of the same binder?
A: Its kon is 35000 M⁻¹ s⁻¹.

Q: And the Kd [11]?
A: Its Kd is 326 nM.

Q: With YGFAPFGSWTWENGKWTWKGYSTQKP [Peptide 1 from the AR-DBD biopanning (14/20 clones), bipodal-peptide binder] as the binder, how does the “fold absorbance over BSA” value [1] read?
A: Its value is > 5 fold.

Q: What does the source list for HSQGSPGSWTWENGKWTWKGRYSHRA [Peptide 3 specific to fibronectin ED-B (Table 3a), bipodal-peptide binder]?
A: koff [4]: 0.099 s⁻¹; kon [4]: 390000 M⁻¹ s⁻¹; Kd [5]: 2500 nM

Q: Which Kd [7] does the source give for HCSSAVGSWTWENGKWTWKG [N-terminal region peptide derived from ED-B peptide 2 (monopodal, one target binding region removed)] here?
A: The Kd was 592000 nM.

Q: And the koff [8]?
A: The koff was 2.54 s⁻¹.

Q: What about the kon [8] of the same binder?
A: The kon was 4290 M⁻¹ s⁻¹.

Q: Which results are given for HCSSAVGKTWNPATGKWTEGIIRLEQ (Synthetic peptide (Anigen)) [Bipodal-peptide binder with HP7 β-hairpin backbone carrying the ED-B peptide 2 binding regions]?
A: Kd [2]: 84 nM; koff [3]: 0.0197 s⁻¹; kon [3]: 236000 M⁻¹ s⁻¹

Q: Does HAFYYTGSWTWENGKWTWKGWPVTTS [Peptide 3 specific to VEGF (Table 3b), bipodal-peptide binder] bind [6]?
A: Result: binds

Q: Does YAHVYYGSWTWENGKWTWKGHRVTQT [Peptide 3 specific to HSA (Table 3e), bipodal-peptide binder] bind (Human serum albumin)?
A: Result: binds

Q: Does HANFFQGSWTWENGKWTWKGWKYNQS [Peptide 1 specific to VEGF (Table 3b), bipodal-peptide binder] bind (BSA)?
A: Result: no binding

Q: And the koff [10]?
A: Its koff is 0.013 s⁻¹.

Q: And the kon [10]?
A: Its kon is 220000 M⁻¹ s⁻¹.

Q: What about the Kd [11] of the same binder?
A: The Kd was 60 nM.

Q: Does ASLPAWGSWTWENGKWTWKGWSTRTA [Peptide 3 specific to nAchR (Table 3d), bipodal-peptide binder] bind [9]?
A: Result: binds

Q: Does SANSLYGSWTWENGKWTWKGTSRQRW [Peptide 2 specific to HSA (Table 3e), bipodal-peptide binder] bind (Human serum albumin)?
A: Result: binds

Q: Does AAPTSFGSWTWENGKWTWKGWQMWHR [Peptide 5 specific to VEGF (Table 3b), bipodal-peptide binder] bind [6]?
A: Result: binds
